Reference: patent US20020064802
Read-outs that look alike come from different tables or passages of the source.

Legend:
[1] = test system: GATA 15.5 ZFP (NLS-ZFP-VP16-FLAG) (synthetic construct (SP1 backbone)); details: ChIP anti-FLAG, 293 cells, GAPDH-normalized; designed for a different site
[2] = test system: GATA 15.5 ZFP (NLS-ZFP-VP16-FLAG) (synthetic construct (SP1 backbone)); assay: cell_activity; details: 293 cells
[3] = test system: GATA 15.5 ZFP (NLS-ZFP-VP16-FLAG) (synthetic construct (SP1 backbone)); details: ChIP anti-FLAG, 293 cells, GAPDH-normalized; 1.9 in Table 7; control ZFP
[4] = test system: VEGF 3a/1 ZFP (NLS-ZFP-VP16-FLAG) (synthetic construct (SP1 backbone)); details: ChIP anti-FLAG, 293 cells, GAPDH-normalized; 170.4 in Table 7
[5] = test system: VEGF 3a/1 ZFP (NLS-ZFP-VP16-FLAG) (synthetic construct (SP1 backbone)); assay: cell_activity; details: 293 cells
[6] = test system: VEGF 3a/1 ZFP (NLS-ZFP-VP16-FLAG) (synthetic construct (SP1 backbone)); details: ChIP anti-FLAG, 293 cells, GAPDH-normalized

endogenous VEGF-A gene (GATA 15.5 bound site not mapped)
binding signal (fold enrichment vs NVF) [1]: 4.1 | activity (fold VEGF mRNA vs NVF) ([2]; VEGF protein 1.2, mRNA 2.0 and protein 2.0 in Table 9): 2

GGGGAGGATCGCGGAGGCTT (double strand)
binding signal (fold enrichment vs NVF) [3]: 0.88 | binding signal (fold enrichment vs NVF) [4]: 74.1 | activity (fold luciferase vs NVF) ([2]; integrated reporter, 1 in Table 8): 0.8 | activity (fold luciferase vs NVF) ([5]; integrated reporter, 10 in Table 8): 18

GGGGAGGATCGCGGAGGCTT (double strand) [endogenous VEGF-A gene target at +1 accessible region]
binding signal (fold enrichment vs NVF) [6]: 12.1 | activity (fold VEGF mRNA vs NVF) ([5]; VEGF protein 1.2, mRNA 1.0 and protein 1.5 in Table 9): 1.6
